B1: HDV Ribozyme (parent)
chain: GGCCGGCAUGGUCCCAGCCUCCUCGCUGGCGCCGGCUGGGCAACAUUCCGAGGGGACCGUCCCCUCGGUAAUGGCGAAUGGGACCCA

The variants in the series derive from B1. The experiment in a line: self-cleavage, relative activity (ratio to wild type); higher = more cleavage; co-transcriptional.
With G6C G29U, the self-cleavage stood at 0.111.
Then C7A G25C, with 0; and G6C C63U, with 0.348.
Then C7U C84G, with 0.527; and C7U C84A, with 1.14.
Consider G6C G59U, for which the self-cleavage was found to be 0.314.
Then G6C C86G, with 0.131; and G6U U20G, with 0.
With G6U C7G, the self-cleavage is 0.
Consider C7U G80U, for which the self-cleavage is 0.117.
Then C7G G55A, with 0.302.
With G6C A77C the figure was 0.277; with C7A U20A, 0.
On to C7G C33A, for which the self-cleavage was determined as 0.196.
For the variant G6A G17C, the self-cleavage is 0.0923.
Then G6A G17A, with 0.318; and A8C C57U, with 0.895.
C7G G73U: the self-cleavage stood at 0.0831.
For G6A G52C, the self-cleavage came to 0.831.
Then A8C C26G, with 1.11; and A8C A70U, with 0.623.
Then A8C A70G, with 0.782.
With C7A G29A the figure was 0.0804.
In the case of G6U G52C, the self-cleavage is 0.554.
With G6U G52U the figure was 0.397; with G6C C58A, 0.308; with G6C C58U, 0.394.
G6A G28A: the self-cleavage was 0.0817.
Then G6U C64G, with 0.388; and G6C C15G, with 0.
Regarding C7G A45G, the self-cleavage stood at 0.217.
Then C7G C21U, with 0.0594; and G6C G53C, with 0.32; and C7G A43U, with 0.0573.
With G6C C44A the figure was 0.208; with C7G A56U, 0.475; with C7G U27A, 0.217.
On to C7G U27G, for which the self-cleavage is 0.256.
Regarding A8C C49A, the self-cleavage was 0.9.
With A8C G25A the figure was 0.172; with C7A G81U, 0.116.
As for G6U A45U, the self-cleavage worked out at 0.475.
Then G6U A45G, with 0.403; and G6U A45C, with 0.0462.
With C7U C32A the figure was 0.0707; with C7U C32G, 0.0361; with C7U C32U, 0.394.
Turning to C7U G54C, the self-cleavage was 0.884.
Then C7U G54U, with 1; and G6U G29C, with 0.119.
With G6U G29A the figure was 0.102.
With C7A C14A the figure was 0.123; with C7A C18A, 0.0852; with G6U C36A, 0.133.
As to G6U G10C, the self-cleavage amounted to 0.364.
Then G6A G76U, with 0.881.
With G6A U47C the figure was 0.525.
With G6A U47G the figure was 1.01; with G6C G31C, 0.399.
As to G6C G31A, the self-cleavage came out at 0.277.
With G6C U27G the figure was 0.0791; with G6C U27A, 0.332; with C7U C57G, 1.2.
Regarding C7A A42C, the self-cleavage came to 0.19.
With G6C A71C the figure was 0.0791; with C7G G52C, 0.229; with C7A A87U, 0.505.
With C7G U46G the figure was 0; with C7A C49U, 0.582.
Then C7U U9A, with 0.86; and C7U U9G, with 0.997; and C7G G35C, with 0.237.
As for C7G G35A, the self-cleavage worked out at 0.156.
Then G6U A56G, with 0.623; and C7G G29C, with 0.0615; and C7A C84U, with 0.366.
Take A8C C58U: the self-cleavage was found to be 0.831.
With C7A G76U the figure was 0.849; with C7G C57A, 0.434; with C7A G28A, 0.123.
With A8C G10A the figure was 0.95; with A8C G10U, 0.415; with A8C G10C, 0.623.
With C7U G59A the figure was 0.8; with A8C A51U, 0.831; with G6C C33U, 0.155.
With A8C A45G, the self-cleavage came out at 0.615.
C7A C33U: the self-cleavage worked out at 0.148.
Then G6A G53C, with 0.928.
With C7G C58U the figure was 0.492; with C7G C86A, 0.426; with G6U C86A, 0.574.
Then G6C A70U, with 0.185.
Consider G6C A70C, for which the self-cleavage came out at 0.133.
Consider C7G C19A, for which the self-cleavage was determined as 0.0831.
Then G6C U65A, with 0.104.
Then A8C C24G, with 0; and G6A G50C, with 0.767; and G6C U79G, with 0.
Then G6A G59C, with 0.587; and C7U U46G, with 0.68; and G6A U72C, with 0.219.
On to C7U U37G, for which the self-cleavage worked out at 0.19.
Then G6U C26U, with 0.892; and G6U G82A, with 0.0875; and G6U U37C, with 0.943.
Regarding G6A G67U, the self-cleavage is 0.692.
Regarding C7A C15G, the self-cleavage is 0.123.
With C7A C26A the figure was 0.615.
Then G6C U20A, with 0; and G6C U12A, with 0.
On to G6U C63A, for which the self-cleavage stood at 0.594.
Then G6C A43G, with 0; and G6A U27A, with 0.514.
Then G6A U27G, with 0.643; and A8C A56C, with 0.692.
With G6A G55A the figure was 0.712; with G6A G55U, 0.831; with C7U U60A, 0.682.
With C7A C85G, the self-cleavage turned out to be 0.688.
Then G6A G11A, with 0.128; and A8C C41A, with 0.798.
Then A8C C41G, with 0.457; and G6C U60C, with 0.453.
Then G6C U60G, with 0.312; and C7A G59C, with 0.578; and G6C G76C, with 0.364.
C7U A42C: the self-cleavage was determined as 0.18.
For the variant C7U A42U, the self-cleavage amounted to 0.196.
Take C7G A71C: the self-cleavage amounted to 0.222.
Then C7G G67C, with 0.0573.
G6U C57A: the self-cleavage was 0.623.
With C7U U65A, the self-cleavage is 0.475.
Then G6C A78U, with 0.
As to G6U A8C, the self-cleavage amounted to 0.447.
Then G6A U37A, with 0.214.
Take C7A G67A: the self-cleavage was 0.315.
Turning to C7A G67C, the self-cleavage was found to be 0.302.
With C7G A83U the figure was 0; with G6A U46C, 0.508; with G6A G82C, 0.
With G6C C85A the figure was 0.0791; with G6C C85G, 0.375.
Then G6U U79G, with 0.185; and A8C C15A, with 0.199; and G6U U47G, with 0.554.
Take A8C G11U: the self-cleavage is 0.17.
With C7U C18A the figure was 0.
Then G6A G35C, with 0.119; and G6C C57G, with 0.396; and G6C C57U, with 0.269.
Then G6U C48A, with 0.542; and G6U C48U, with 0.696.
For C7U C61G, the self-cleavage was found to be 0.743.
Then G6U G11A, with 0.0437; and G6U C41U, with 0.259; and G6U C41G, with 0.237.
With G6U C41A the figure was 0.269; with A8C A87C, 0.805; with C7U U12A, 0.35.
Turning to C7U U12C, the self-cleavage is 0.237.
With C7A G68A the figure was 0.464.
Then C7U C22U, with 0.394.
G6U U60C: the self-cleavage was 0.525.
As to G6C C22G, the self-cleavage came out at 0.145.
Then A8C C61G, with 0.772.
Then G6C C14G, with 0.111.

(Values after the RNAGym collection of RNA variant scans (doi:10.7554/elife.80360).)
